Test system: Escherichia coli TOP10
Assay: shrunken log2 fold change of peptide-encoding DNA abundance (4.5 h post-induction vs induction); higher = less antimicrobial activity (less host growth inhibition)
Conditions: time post-induction: 4.5 h; library: site-saturation at positions 5, 18, 19, 20
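Also: peptides expressed intracellularly from a pBAD plasmid library in pooled LB shake-flask culture, induced with 0.3% L-arabinose, DNA abundance read by NGS, three biological replicates, DESeq2 with apeglm shrinkage.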

Row | Sequence | shrunken log2 fold change
1 | RRIRCRPPRLPRPRPRPYASPRP | -0.0843
2 | RRIRKRPPRLPRPRPRPRVWPRP | 0.809
3 | RRIRERPPRLPRPRPRPGKYPRP | -0.17
4 | RRIRWRPPRLPRPRPRPWQCPRP | -0.233
5 | RRIRSRPPRLPRPRPRPFKFPRP | -0.438
6 | RRIRMRPPRLPRPRPRPDKSPRP | 0.283
7 | RRIRDRPPRLPRPRPRPYGEPRP | -0.31
8 | RRIRTRPPRLPRPRPRPQVQPRP | -0.0311
9 | RRIRARPPRLPRPRPRPGEGPRP | 1.02
10 | RRIRWRPPRLPRPRPRPHKNPRP | -0.13
11 | RRIRRRPPRLPRPRPRPHKEPRP | 0.0317
12 | RRIRARPPRLPRPRPRPDWQPRP | 0.281
13 | RRIRQRPPRLPRPRPRPFQHPRP | -0.117
14 | RRIRYRPPRLPRPRPRPREQPRP | -0.659
15 | RRIRYRPPRLPRPRPRPNMWPRP | -0.391
16 | RRIRDRPPRLPRPRPRPTVSPRP | 0.853
17 | RRIRHRPPRLPRPRPRPVVYPRP | -0.186
18 | RRIRWRPPRLPRPRPRPYSAPRP | -0.147
19 | RRIRHRPPRLPRPRPRPAEAPRP | -0.0896
20 | RRIRYRPPRLPRPRPRPQVLPRP | -0.725
21 | RRIRPRPPRLPRPRPRPVDHPRP | 0.0611
22 | RRIRMRPPRLPRPRPRPRFDPRP | 0.364
23 | RRIRSRPPRLPRPRPRPILNPRP | -0.183
24 | RRIRNRPPRLPRPRPRPKGSPRP | -0.0293
25 | RRIRSRPPRLPRPRPRPICYPRP | -0.475

Row | Sequence | shrunken log2 fold change
26 | RRIRCRPPRLPRPRPRPQFMPRP | -0.59
27 | RRIRDRPPRLPRPRPRPIEIPRP | -0.298
28 | RRIRIRPPRLPRPRPRPSKRPRP | -0.622
29 | RRIRPRPPRLPRPRPRPADCPRP | 0.273
30 | RRIRRRPPRLPRPRPRPISPPRP | -0.00237
31 | RRIRQRPPRLPRPRPRPIRHPRP | -0.182
32 | RRIRERPPRLPRPRPRPKQRPRP | 0.235
33 | RRIRIRPPRLPRPRPRPCNTPRP | -0.0252
34 | RRIRWRPPRLPRPRPRPILCPRP | 0.00316
35 | RRIRGRPPRLPRPRPRPTQHPRP | 0.855
36 | RRIRPRPPRLPRPRPRPFLRPRP | -0.327
37 | RRIRPRPPRLPRPRPRPLHHPRP | -0.0808
38 | RRIRQRPPRLPRPRPRPCVSPRP | -0.107
39 | RRIRQRPPRLPRPRPRPDNYPRP | -0.194
40 | RRIRSRPPRLPRPRPRPRYHPRP | -0.339
41 | RRIRTRPPRLPRPRPRPCAFPRP | -0.0344
42 | RRIRNRPPRLPRPRPRPDPEPRP | 0.211
43 | RRIRCRPPRLPRPRPRPQIDPRP | -0.0788
44 | RRIRYRPPRLPRPRPRPGCFPRP | -0.349
45 | RRIRLRPPRLPRPRPRPTLDPRP | 0.0159
46 | RRIRMRPPRLPRPRPRPFFQPRP | -0.134
47 | RRIRSRPPRLPRPRPRPCHHPRP | -0.179
48 | RRIRHRPPRLPRPRPRPLQWPRP | -0.127
49 | RRIRSRPPRLPRPRPRPNQEPRP | 0.0169
50 | RRIRCRPPRLPRPRPRPPTPPRP | 0.776

Row | Sequence | shrunken log2 fold change
51 | RRIRTRPPRLPRPRPRPDPKPRP | 0.113
52 | RRIRIRPPRLPRPRPRPKWRPRP | 0.188
53 | RRIRTRPPRLPRPRPRPFNHPRP | 0.00676
54 | RRIRERPPRLPRPRPRPIRHPRP | -0.397
55 | RRIRQRPPRLPRPRPRPNTNPRP | -0.47
56 | RRIRSRPPRLPRPRPRPHVLPRP | -0.54
57 | RRIRDRPPRLPRPRPRPSNVPRP | -0.0805
58 | RRIRHRPPRLPRPRPRPQPYPRP | -1.53
59 | RRIRERPPRLPRPRPRPQHAPRP | -0.107
60 | RRIRFRPPRLPRPRPRPAWYPRP | -0.103
61 | RRIRQRPPRLPRPRPRPRNVPRP | -0.0777
62 | RRIRCRPPRLPRPRPRPSNFPRP | -0.627
63 | RRIRLRPPRLPRPRPRPCFGPRP | -0.0493
64 | RRIRGRPPRLPRPRPRPRITPRP | 0.792
65 | RRIRRRPPRLPRPRPRPGFNPRP | 0.0515
66 | RRIRSRPPRLPRPRPRPIPKPRP | 0.125
67 | RRIRCRPPRLPRPRPRPHCVPRP | -0.439
68 | RRIRERPPRLPRPRPRPPCSPRP | -0.258
69 | RRIRTRPPRLPRPRPRPNYVPRP | -0.35
70 | RRIRPRPPRLPRPRPRPKVYPRP | -0.292
71 | RRIRPRPPRLPRPRPRPEHHPRP | -0.0616
72 | RRIRTRPPRLPRPRPRPKPSPRP | 0.335
73 | RRIRERPPRLPRPRPRPWYHPRP | -0.588
74 | RRIRHRPPRLPRPRPRPNYHPRP | -0.83
75 | RRIRNRPPRLPRPRPRPCYTPRP | -0.0126
